Data reported in patent US20120207760A1.

What was measured:
[1] = target: M2 protein of influenza A/Wisconsin/67/05 (H3N2), on inactivated whole virions (Influenza A virus A/Wisconsin/67/2005 (H3N2)); experiment: ELISA, positive control antibody on inactivated whole virions
[2] = target: 23 amino acid synthetic M2e peptide of A/Fort Worth/1/50 (influenza A virus A/Fort Worth/1/50 (H1N1)); experiment: ELISA on the 23mer M2e peptide (FIG. 14b)

TCN-032 (8I10) (antibody), sequence (VH): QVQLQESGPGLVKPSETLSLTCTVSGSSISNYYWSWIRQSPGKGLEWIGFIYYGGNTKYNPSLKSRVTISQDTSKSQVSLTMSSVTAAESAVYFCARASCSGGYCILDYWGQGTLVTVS
TCN-032 (8I10) (antibody), sequence (VL): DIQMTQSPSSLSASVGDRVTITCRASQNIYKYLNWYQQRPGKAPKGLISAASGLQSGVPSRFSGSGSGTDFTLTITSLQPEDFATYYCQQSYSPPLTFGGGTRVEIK

Row | Substance | OD450 [1] | EC50 [2]
1 | TCN-032 (8I10) (antibody) | 3.62 OD450 | 
2 | chimeric mouse V-region/human IgG1 kappa 14C2 antibody |  | 0.01 µg/mL
